Results reported in US20060134122A1, “Peptides of syndecan-1 for inhibition of cancer” (priority 2004, published 2006).

Assays:
[1] = biological target: αvβ3 integrin (human, on MDA-MB-231, MDA-MB-435, HAEC and HMEC cells) (human) (UniProt P06756); assay: cell-based or functional assay
[2] = test system: MCF-7 human carcinoma cells; assay: Cell spreading assay, MCF-7; assay type: cell-based; conditions: 10 μg/mL VN, 2 h; LM609 30 μg/mL; mAb 13 25 μg/mL; GST-mS1ED 20 μM
Procedure: FIG. 3—MDA-MB-435, but not MCF-7, human carcinoma cells display functional coupling of Sdc-1 and αvβ3 integrins on VN. Depicted are phalloidin-stained cells 2 h after plating on wells coated with 10 μg/mL VN (upper half) or FN (lower half) in plating medium alone or medium containing either 30 μg/mL mAb LM609, 25 μg/mL mAb 13, 20 μM GST-mS1ED or -mS4ED. Bar, 50 μm.
MDA-MB-435, but not MCF-7, human carcinoma cells display functional coupling of Sdc-1 and αvβ3 integrin on VN. To test whether activation of αvβ3 integrin activation on matrix is also functionally coupled to Sdc-1, MDA-MB-435 and MCF-7 cells were plated on either VN or FN (FIG. 3). MDA-MB-435 cells spread on VN and require αvβ3 integrins for this activity as spreading is blocked by mAb LM609. Although the MCF-7 cells spread on VN, this spreading is unaffected by LM609; these cells rely instead on αvβ1 integrins as spreading is blocked by either mAb 13 (FIG. 3) or αv-specific mAb M9 (unpublished data; de Vries et al., 1986). Neither cell type utilizes αvβ3 to respond to FN, rather both utilize […] that are blocked by either mAb 13 (FIG. 3) or mAb 16 (unpublished data).
To test whether GST-mS1ED specifically blocks αvβ3 integrin-dependent spreading or acts as a general inhibitor to all αv integrin heterodimers, MDA-MB-435 and MCF-7 cells were plated on VN in the presence of 20 μM GST-mS1ED. […]

αvβ3 integrin [3] = biological target: T1, αvβ3 integrin (Homo sapiens, UniProt P05106+P06756); assay: WOW1 Fab binding (activated αvβ3 integrin), MDA-MB-435; assay type: cell-based; conditions: cells adherent to mAb B-B4; 20 μM GST-mS1ED
T1 construct: endogenous in cells; host or cells: MDA-MB-435 (A4) and MDA-MB-231 (A5) human mammary carcinoma cells
Procedure: (§1) FIGS. 2A-C—Sdc-1 adhesion-mediated cell spreading correlates with αvβ3 integrin. expression and activity. (FIG. 2A) FACS analysis of αvβ3 integrin expression (mAb LM609) in human mammary carcinoma cells against an IgG isotype control. (FIG. 2B) Depicted on split panels are phalloidin-stained MDA-MB-435 (upper half) and MCF-7 (lower half) cells 2 h after plating on wells coated with mAb B-B4 in plating medium alone or medium containing either 30 μg/mL mAb LM609, 1 μg/mL mAb 13 or 20 μM GST-mS1ED. Bar, 50 μm. (FIG. 2C) Untreated MDA-MB-435, MDA-MB-231 and MCF-7 cells (columns 1 and 4) and cells pretreated in suspension with 1 μg/mL mAb 13 (columns 2 and 3) were seeded on wells coated with either mAb B-B4 or COL I in plating medium alone (columns 1, 2 and 4) or medium containing 20 μM GST-mS1ED (column 3). Cells were incubated at 37° C. for 2 h, fixed, permeabilized and stained with WOW1 and an Alexa 488-conjugated secondary. Panel insets are corresponding phase contrast pictures. Bar, 20 μm.
(§2) To verify that cell spreading induced upon Sdc-1 ligation correlates with αvβ3activation, the inventors relied upon binding of the ligand-mimetic WOW1 mouse Fab—a probe that detects activated, but unligated αvβ3 integrin. MDA-MB-435 cells adherent to mAb B-B4 display strong binding of WOW1 both centrally and within puncta at the spreading margin of cells (FIG. 2C). […]

αvβ3 integrin [4] = biological target: T1, αvβ3 integrin; assay: WOW1 Fab binding (activated αvβ3 integrin), MDA-MB-231; assay type: cell-based; conditions: cells adherent to mAb B-B4, pre-treated with 1 μg/mL mAb 13; GST-mS1ED 20 μM
Procedure: as §1, §2

[5] = test system: MDA-MB-231 and MB-435 cells; assay: Migration across coated filters (modified Boyden chamber), MDA-MB-231 and MB-435; assay type: cell-based, human; conditions: S1ED pAb 250 μg/mL or GST-mS1ED 20 μM; 16 h
Procedure: (§3) FIGS. 5A-B—Sdc-1ED Inhibitors disrupt αvβ3 integrin-dependent cell migration on VN. MDA-MB-231, MDA-MB-435 and MCF-7 cells in plating medium alone (black-filled) or in plating medium containing either 20 μM GST-mS1ED (open) or 250 μg/mL polyclonal mS1ED antibodies (gray-filled) were seeded on polycarbonate filters coated with either 10 μg/ml of VN (FIG. 5A) or FN (FIG. 5B) in a modified Boyden chamber. After 16 h, cells that migrated through the filter in response to 10% FBS in the lower chamber were quantified by colorimetric staining.
(§4) To test the role of the S1ED in αvβ3 integrin dependent signaling in another functional assay, cells were examined for their ability to migrate across VN or FN-coated filters in the presence or absence of S1ED pAb (250 μg/mL) or GST-mS1ED recombinant protein (20 μM). Migration of treated MDA-MB-231 and MB-435 cells across VN is suppressed 2- to 4-fold relative to untreated controls (FIG. 5A). MCF-7 cell migration across VN, which is αvβ1 dependent, is unaffected by either treatment.

MCF-7 cells = assay: Migration across coated filters (modified Boyden chamber), MCF-7; assay type: cell-based, human; conditions: S1ED pAb 250 μg/mL or GST-mS1ED 20 μM; 16 h
Procedure: as §3, §4

T1 sequence (P06756 31-889 limits assumed): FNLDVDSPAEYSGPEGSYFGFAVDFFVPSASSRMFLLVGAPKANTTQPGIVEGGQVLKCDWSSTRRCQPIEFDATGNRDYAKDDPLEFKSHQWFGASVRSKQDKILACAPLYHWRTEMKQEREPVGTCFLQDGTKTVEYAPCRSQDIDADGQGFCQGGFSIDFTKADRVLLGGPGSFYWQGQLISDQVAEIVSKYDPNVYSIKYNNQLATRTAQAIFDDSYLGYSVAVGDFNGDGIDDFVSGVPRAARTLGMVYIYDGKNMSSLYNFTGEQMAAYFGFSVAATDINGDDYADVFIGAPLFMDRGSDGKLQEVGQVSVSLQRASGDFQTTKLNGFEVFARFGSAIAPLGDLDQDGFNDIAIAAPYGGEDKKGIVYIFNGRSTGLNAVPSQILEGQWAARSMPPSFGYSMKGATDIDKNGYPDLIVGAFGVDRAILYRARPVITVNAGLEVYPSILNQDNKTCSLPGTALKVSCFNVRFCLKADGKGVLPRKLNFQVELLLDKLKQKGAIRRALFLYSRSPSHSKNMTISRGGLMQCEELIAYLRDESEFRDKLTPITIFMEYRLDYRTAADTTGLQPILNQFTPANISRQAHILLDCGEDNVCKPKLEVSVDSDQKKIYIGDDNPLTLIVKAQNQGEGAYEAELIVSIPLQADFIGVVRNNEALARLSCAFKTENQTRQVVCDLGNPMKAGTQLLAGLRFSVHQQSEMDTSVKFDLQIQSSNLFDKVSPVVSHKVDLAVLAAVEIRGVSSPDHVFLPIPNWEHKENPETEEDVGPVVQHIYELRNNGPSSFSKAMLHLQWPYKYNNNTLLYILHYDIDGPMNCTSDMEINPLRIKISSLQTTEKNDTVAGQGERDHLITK
T1 sequence (P06756 891-1048 limits assumed): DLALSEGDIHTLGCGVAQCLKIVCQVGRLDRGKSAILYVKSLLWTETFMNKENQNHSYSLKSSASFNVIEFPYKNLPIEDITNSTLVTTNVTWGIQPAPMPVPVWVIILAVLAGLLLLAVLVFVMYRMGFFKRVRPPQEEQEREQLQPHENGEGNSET
T1 sequence (P05106 27-788): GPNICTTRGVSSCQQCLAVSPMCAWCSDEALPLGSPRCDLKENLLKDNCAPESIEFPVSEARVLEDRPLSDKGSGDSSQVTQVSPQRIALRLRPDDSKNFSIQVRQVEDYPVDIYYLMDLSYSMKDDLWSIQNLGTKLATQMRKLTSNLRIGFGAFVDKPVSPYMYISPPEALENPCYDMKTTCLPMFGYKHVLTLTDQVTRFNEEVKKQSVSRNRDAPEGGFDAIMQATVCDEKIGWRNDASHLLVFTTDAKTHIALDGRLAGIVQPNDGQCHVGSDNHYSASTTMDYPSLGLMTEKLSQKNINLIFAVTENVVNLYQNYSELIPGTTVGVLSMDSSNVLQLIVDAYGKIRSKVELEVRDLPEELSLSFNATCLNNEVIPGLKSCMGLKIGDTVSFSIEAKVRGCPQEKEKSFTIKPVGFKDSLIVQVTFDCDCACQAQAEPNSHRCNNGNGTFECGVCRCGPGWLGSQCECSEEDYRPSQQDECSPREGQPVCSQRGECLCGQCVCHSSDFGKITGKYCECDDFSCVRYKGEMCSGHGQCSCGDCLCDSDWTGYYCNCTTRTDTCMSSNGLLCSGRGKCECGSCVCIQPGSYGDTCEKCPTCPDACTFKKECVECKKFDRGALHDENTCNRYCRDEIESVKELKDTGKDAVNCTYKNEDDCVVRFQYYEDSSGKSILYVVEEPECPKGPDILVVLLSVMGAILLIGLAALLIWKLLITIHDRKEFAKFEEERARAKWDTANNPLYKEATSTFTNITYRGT
αvβ3 integrin (human, on MDA-MB-231, MDA-MB-435, HAEC and HMEC cells) (human), sequence (P06756 31-1048, chain 1 of 2): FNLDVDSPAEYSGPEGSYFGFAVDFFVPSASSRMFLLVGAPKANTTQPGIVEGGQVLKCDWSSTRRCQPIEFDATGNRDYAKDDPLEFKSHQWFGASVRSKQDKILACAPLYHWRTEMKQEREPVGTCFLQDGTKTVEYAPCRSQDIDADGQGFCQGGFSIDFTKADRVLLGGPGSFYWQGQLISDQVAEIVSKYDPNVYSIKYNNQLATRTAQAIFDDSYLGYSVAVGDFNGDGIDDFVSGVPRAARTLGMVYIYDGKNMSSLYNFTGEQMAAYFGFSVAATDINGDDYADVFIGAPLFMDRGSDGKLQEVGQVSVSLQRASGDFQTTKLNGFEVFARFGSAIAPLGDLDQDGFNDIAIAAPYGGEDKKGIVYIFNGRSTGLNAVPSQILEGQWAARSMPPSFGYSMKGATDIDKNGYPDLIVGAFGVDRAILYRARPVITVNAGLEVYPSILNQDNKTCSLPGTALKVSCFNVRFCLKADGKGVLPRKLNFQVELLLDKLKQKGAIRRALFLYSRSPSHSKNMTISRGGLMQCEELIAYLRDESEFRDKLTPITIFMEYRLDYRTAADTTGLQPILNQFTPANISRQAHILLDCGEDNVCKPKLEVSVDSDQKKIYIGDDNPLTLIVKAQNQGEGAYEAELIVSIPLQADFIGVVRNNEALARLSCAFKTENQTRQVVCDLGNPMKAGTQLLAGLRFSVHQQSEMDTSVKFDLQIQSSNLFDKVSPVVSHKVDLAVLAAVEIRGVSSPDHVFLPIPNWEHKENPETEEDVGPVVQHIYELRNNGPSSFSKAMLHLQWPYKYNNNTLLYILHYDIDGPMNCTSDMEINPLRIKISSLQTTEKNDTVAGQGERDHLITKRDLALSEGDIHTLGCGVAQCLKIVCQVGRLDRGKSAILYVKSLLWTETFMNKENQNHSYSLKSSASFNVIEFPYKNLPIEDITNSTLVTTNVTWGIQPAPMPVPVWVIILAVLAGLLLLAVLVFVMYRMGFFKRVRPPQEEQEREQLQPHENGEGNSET
αvβ3 integrin (human, on MDA-MB-231, MDA-MB-435, HAEC and HMEC cells) (human), sequence (P05106 27-788, chain 2 of 2, further chain): as the sequence (P05106 27-788) above

B1: GST-mS1ED: recombinant mouse syndecan-1 ectodomain expressed as a fusion protein with GST (protein)
chain: QIVAVNVPPEDQDGSGDDSDNFSGSGTGALPDTLSRQTPSTWKDVWLLTATPTAPEPTSSNTETAFTSVLPAGEKPEEGEPVLHVEAEPGFTARDKEKEVTTRPRETVQLPITQRASTVRVTTAQAAVTSHPHGGMQPGLHETSAPTAPGQPDHQPPRVEGGGTSVIKEVVEDGTANQLPAGEGSGEQDFTFETSGENTAVAAVEPGLRNQPPVDEGATGASQSLLDRKEVLG
modifications: left off: a dimerising Fc or GST
notes: recombinant mouse syndecan-1 ectodomain expressed as a fusion protein with GST
With B1 the migration of MDA-MB-231 and MB-435 cells across VN, 20 µM GST-mS1ED [1] was 2 to 4 fold, the “cell spreading on VN” value [2] was “Only the MDA-MB-435 cells fail to spread” and the “WOW1 binding (αvβ3 activation)” value (αvβ3 integrin [3]) was “WOW1 fails to bind”. For the same molecule, the “WOW1 binding (αvβ3 activation)” value (αvβ3 integrin [4]) was “WOW1 staining is also lost”, the “cell migration across FN” value [5] was “neither inhibitor has any effect” and the “cell migration across FN” value (MCF-7 cells) was “neither inhibitor has any effect”. The “cell migration across VN” value (MCF-7 cells) was “unaffected”.
